Test results: patent US20130202615A1 (VACCINEX, published 2013)

Experiments:
[1] = molecular target: T1, VEGF (UniProt P15692-4 27-191, limits assumed); experiment: Biacore SPR, both antibodies tested under the same conditions
T1 construct: also called VEGF-A; vascular endothelial growth factor
Text: (§1) Data was fit with a bivalent model for affinity determination.

[2] = molecular target: T1, VEGF; experiment: Biacore SPR, VEGF immobilized on the chip, antibody as analyte, bivalent model fit
Text: as §1

[3] = molecular target: T1, VEGF; experiment: VEGFR1 blocking ELISA: antibody pre-incubated with VEGF, added to a VEGFR1-coated plate
[4] = molecular target: T1, VEGF; experiment: VEGFR2 blocking ELISA: antibody pre-incubated with VEGF, added to a VEGFR2-coated plate
[5] = molecular target: T1, VEGF; experiment: summary table of MAb7392 characterization; affinity by Biacore, rounded form of the value in Table 2; summary Table 6, rounded value
Text: as §1

[6] = molecular target: T1, VEGF; experiment: competition ELISA: titrated antibody and biotinylated bevacizumab added to a VEGF-coated plate, bound biotinylated bevacizumab detected with Strep-HRP; competitor: biotinylated bevacizumab

T1 sequence (P15692 other isoform, or with tags, fused parts or gaps limits assumed): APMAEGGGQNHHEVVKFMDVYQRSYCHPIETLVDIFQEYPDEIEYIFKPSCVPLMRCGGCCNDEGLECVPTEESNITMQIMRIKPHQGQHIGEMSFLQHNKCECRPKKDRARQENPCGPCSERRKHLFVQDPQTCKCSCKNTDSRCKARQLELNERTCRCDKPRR

fold better affinity than bevacizumab [1]: ~4 fold | Kd [2]: 0.91 nM | IC50 [3]: 0.08 nM | IC50 [4]: 0.18 nM | Kd [5]: 0.9 nM | IC50 (read off the curve) [6]: ~0.6 nM
B1: MAb7392 (antibody, V domains shown)
VH: QVQLVQSGAELRKPGASVKISCKASGYSLTYYGMNWVRQAPGQGLEWMGWINTFTGDSTYAQDFTGRFVFSLDTSVSTAYLQISSLKAEDMAMYYCAKYPHYYGSSHWYFDVWGQGTTVTVSS
VL: EIVLTQSPATLSVSPGERATLSCRASQSVNSNLAWYQQKPGQAPRVLIYGASTRATGIPARFSGSGSGTEFTLTISSLQSEDFAVYYCQQYSDIPWTFGQGTKLEIK
notes: also called H7230 + L7104
